Where “and” joins values, the source holds several entries; their conditions need not be identical. Equal entries are not always repeated. Some results are limits rather than exact numbers.

The target in test [1] is Δ19 spike protein of C.37 on pseudotyped lentivirus (SARS-CoV-2 (C.37)). As to the kind of experiment: cell-based or functional assay.
Test [2] addresses Δ19 spike protein of B.1.617.2 on pseudotyped lentivirus (SARS-CoV-2 (B.1.617.2)). The test is described as follows: cell-based or functional assay.
Test [3] addresses Δ19 spike protein of strain B.1.351 on pseudotyped lentivirus (SARS-CoV-2 (B.1.351)). The test is described as follows: cell-based or functional assay.
The target in test [4] is T1, human IgG1 Fc-tagged RBD, E484K (SARS-CoV-2; human, UniProt P0DTC2 319-541).
T1 construct: domain: RBD
As to the kind of experiment: ELISA; DARPin coated, Fc-tagged RBD titrated.

Test [5] deals with T2, human IgG1 Fc-tagged RBD, T478K (SARS-CoV-2; human, UniProt P0DTC2 319-541).
T2 construct: domain: RBD
As to the kind of experiment: ELISA; DARPin coated, Fc-tagged RBD titrated. Background: An ELISA detects its analyte on a solid surface through an enzyme-linked reagent.

In test [6] the target is T3, human IgG1 Fc-tagged RBD, L455F (SARS-CoV-2; human, UniProt P0DTC2 319-541).
T3 construct: domain: RBD
The test is described as follows: ELISA; DARPin coated, Fc-tagged RBD titrated.

The target of test [7] is T4, human IgG1 Fc-tagged RBD, K417E (SARS-CoV-2; human, UniProt P0DTC2 319-541).
T4 construct: domain: RBD
The test is described as follows: ELISA; DARPin coated, Fc-tagged RBD titrated.

Test [8] has as its target T5, human IgG1 Fc-tagged RBD, K444Q (SARS-CoV-2; human, UniProt P0DTC2 319-541).
T5 construct: domain: RBD
As to the kind of experiment: ELISA; DARPin coated, Fc-tagged RBD titrated.

In test [9] the target is T6, human IgG1 Fc-tagged RBD, S494P (SARS-CoV-2; human, UniProt P0DTC2 319-541).
T6 construct: domain: RBD
As to the kind of experiment: ELISA; DARPin coated, Fc-tagged RBD titrated.

Test [10] deals with T7, human IgG1 Fc-tagged RBD, Y453F (SARS-CoV-2; human, UniProt P0DTC2 319-541).
T7 construct: domain: RBD
As to the kind of experiment: ELISA; DARPin coated, Fc-tagged RBD titrated.

Test [11] has as its target T8, human IgG1 Fc-tagged RBD, L452R + T478K (SARS-CoV-2; human, UniProt P0DTC2 319-541).
T8 construct: domain: RBD
The test is described as follows: ELISA; DARPin coated, Fc-tagged RBD titrated.

The target of test [12] is T9, human IgG1 Fc-tagged RBD, F486V (SARS-CoV-2; human, UniProt P0DTC2 319-541).
T9 construct: domain: RBD
As to the kind of experiment: ELISA; DARPin coated, Fc-tagged RBD titrated.

Test [13] concerns the target T10, human IgG1 Fc-tagged RBD, G476S (SARS-CoV-2; human, UniProt P0DTC2 319-541).
T10 construct: domain: RBD
The test is described as follows: ELISA; DARPin coated, Fc-tagged RBD titrated.

The target in test [14] is T11, human IgG1 Fc-tagged RBD, S477N (SARS-CoV-2; human, UniProt P0DTC2 319-541).
T11 construct: domain: RBD
As to the kind of experiment: ELISA; DARPin coated, Fc-tagged RBD titrated.

The target in test [15] is T12, human IgG1 Fc-tagged RBD, N439K (SARS-CoV-2; human, UniProt P0DTC2 319-541).
T12 construct: domain: RBD
As to the kind of experiment: ELISA; DARPin coated, Fc-tagged RBD titrated.

For test [16], the target named is T13, human IgG1 Fc-tagged RBD, F490S (SARS-CoV-2; human, UniProt P0DTC2 319-541).
T13 construct: domain: RBD
As to the kind of experiment: ELISA; DARPin coated, Fc-tagged RBD titrated.

Test [17] addresses T14, human IgG1 Fc-tagged RBD, Wuhan-1 (SARS-CoV-2 (Wuhan-1); human, UniProt P0DTC2 319-541).
T14 construct: domain: RBD
As to the kind of experiment: ELISA; DARPin coated, Fc-tagged RBD titrated.

Test [18] deals with T15, human IgG1 Fc-tagged RBD, F486S (SARS-CoV-2; human, UniProt P0DTC2 319-541).
T15 construct: domain: RBD
The test is described as follows: ELISA; DARPin coated, Fc-tagged RBD titrated.

Test [19] concerns the target T16, human IgG1 Fc-tagged RBD, L452R (SARS-CoV-2; human, UniProt P0DTC2 319-541).
T16 construct: domain: RBD
The test is described as follows: ELISA; DARPin coated, Fc-tagged RBD titrated.

Test [20] concerns the target T17, human IgG1 Fc-tagged RBD, V445A (SARS-CoV-2; human, UniProt P0DTC2 319-541).
T17 construct: domain: RBD
As to the kind of experiment: ELISA; DARPin coated, Fc-tagged RBD titrated.

Test [21] has as its target T18, human IgG1 Fc-tagged RBD, G446V (SARS-CoV-2; human, UniProt P0DTC2 319-541).
T18 construct: domain: RBD
The test is described as follows: ELISA; DARPin coated, Fc-tagged RBD titrated.

For test [22], the target named is T19, human IgG1 Fc-tagged RBD, E484Q (SARS-CoV-2; human, UniProt P0DTC2 319-541).
T19 construct: domain: RBD
As to the kind of experiment: ELISA; DARPin coated, Fc-tagged RBD titrated.

Test [23] addresses T20, human IgG1 Fc-tagged RBD, L452R + E484Q (SARS-CoV-2; human, UniProt P0DTC2 319-541).
T20 construct: domain: RBD
As to the kind of experiment: ELISA; DARPin coated, Fc-tagged RBD titrated.

Test [24] addresses spike protein of authentic SARS-CoV-2 B.1.617.2 (SARS-CoV-2 (B.1.617.2)). As to the kind of experiment: cell-based or functional assay.
Test [25] deals with spike protein of authentic SARS-CoV-2 B.1.617.2/AY1 (SARS-CoV-2 (B.1.617.2.AY1)). As to the kind of experiment: cell-based or functional assay.
In test [26] the target is spike protein of authentic SARS-CoV-2 B.1.1.519/BA.1 (SARS-CoV-2 (BA.1)). The test is described as follows: cell-based or functional assay.
Test [27] deals with spike protein of authentic SARS-CoV-2 B.1.1.519/BA.1.1 (SARS-CoV-2 (BA.1.1)). As to the kind of experiment: cell-based or functional assay.
For test [28], the target named is spike protein of authentic SARS-CoV-2 B.1.351 (SARS-CoV-2 (B.1.351)). The test is described as follows: cell-based or functional assay.
For test [29], the target named is spike protein of authentic SARS-CoV-2 B.1.1.519/BA.2 (SARS-CoV-2 (BA.2)). The test is described as follows: cell-based or functional assay.
For test [30], the target named is human IgG1 Fc-tagged RBD of Omicron (SARS-CoV-2 (Omicron); human).
Test [31] concerns the target T14, human IgG1 Fc-tagged RBD, Wuhan-1.

B1: FSR22 (designed binder)
chain: MGSSHHHHHHSSGMEQKLISEEDLDGYIPEAPRDGQAYVRKDGEWVLLSTFLGGGGSLQGGGGSLQGSDLGKKLLEAARAGQDDEVRILMANGADVNACDPSGITPLHLAADKGHLEIVEVLLKYGADVNAMDVWGRTPLHLAAFTGHLEIVEVLLKYGADVNACDLNGYTPLHLAAGRGHLEIVEVLLKNGAGVNAQDKFGKTAFDISIDNGNEDLAEILQSSS
On to B1, for which the “Neutralization IC50, pseudotyped lentivirus” value in [1] is 6.3 ng/ml and 89 pM; in [2] it was 13.3 ng/ml and 188 pM; in test [3], 9.5 ng/ml and 135 pM. The EC50 (commonly the concentration at which the effect is half-maximal) in test [4] came out at 4.57 nM; in test [5], 15.2 nM; in test [6], 9.24 nM; in test [7], 300 nM; in [8], 5.92 nM; in test [9] it was 0.61 nM. Also, the EC50 came to 3.97 nM in test [10]; 7.83 nM in test [11]; 105 nM in [12]; 27.2 nM in test [13]; 1.57 nM in test [14]; 2.63 nM in [15]. Moreover, the EC50 was found to be 1.57 nM in [16]; 1.96 nM in [17]; 70.5 nM in test [18]; 1.87 nM in test [19]; 3.43 nM in test [20]; 30.6 nM in [21]. Further, the EC50 in test [22] and in test [23] was 4.05 nM in each case. Also, the “Neutralization IC50, authentic SARS-CoV-2 virus” value in test [24] was 41.7 ngml^-1; in [25], 44.2 ngml^-1; in test [26], 169 ngml^-1; in [27] it was 41.2 ngml^-1; in [28] it was 57.2 ngml^-1; in test [29], 216 ngml^-1. The figures for the dissociation constant (Kd) in test [30] and in test [31] were 2.63 nM and 12.3 nM, respectively.

B2: SR22 (designed binder)
chain: MGSSHHHHHHSSGLVPRGSHMEQKLISEEDLGSDLGKKLLEAARAGQDDEVRILMANGADVNACDPSGITPLHLAADKGHLEIVEVLLKYGADVNAMDVWGRTPLHLAAFTGHLEIVEVLLKYGADVNACDLNGYTPLHLAAGRGHLEIVEVLLKNGAGVNAQDKFGKTAFDISIDNGNEDLAEILQSSS
On to B2, for which the “Neutralization IC50, pseudotyped lentivirus” value in [2] was 69.8 nM; in test [3] it was 1100 nM.

B3: SR16m (designed binder)
chain: MGSSDLGKKLLEAARAGQDDEVRILMANGADVNALDLFGVTPLHLAAERGHLEIVEVLLKNGADVNAGDAFGRTPLHLAALGGHLEIVEVLLKNGADVNACDLYGVTPLHLAAGLGHLEIVEVLLKNGADVNAQDKFGKTAFDISIDNGNEDLAEILQSSSKLAAALEHHHHHH
As to B3, the “Neutralization IC50, pseudotyped lentivirus” value in test [2] is 77.8 nM; in [3], 420 nM.

B4: FSR16m (designed binder)
chain: MGMEQKLISEEDLDGYIPEAPRDGQAYVRKDGEWVLLSTFLGGGGSLQGGGGSLQGSDLGKKLLEAARAGQDDEVRILMANGADVNALDLFGVTPLHLAAERGHLEIVEVLLKNGADVNAGDAFGRTPLHLAALGGHLEIVEVLLKNGADVNACDLYGVTPLHLAAGLGHLEIVEVLLKNGADVNAQDKFGKTAFDISIDNGNEDLAEILQSSSKLAAALEHHHHHH
Regarding B4, the “Neutralization IC50, pseudotyped lentivirus” value in [1] was 0.9 ng/ml and 13 pM; in test [2], 66 pM and 4.8 ng/mL; in test [3] it was 18 pM and 1.3 ng/ml. Moreover, the EC50 in test [4] was determined as 0.21 nM; in [5], 0.19 nM; in test [6], 0.1 nM; in test [7], 300 nM; in test [8], 1.03 nM; in test [9], 0.26 nM. For the same molecule, the EC50 in test [10] was 0.74 nM; in test [11], 0.13 nM; in test [12], 300 nM; in test [13], 5.73 nM; in test [14], 0.63 nM; in test [15] it was 0.75 nM. Further, the EC50 is 0.15 nM in test [16]; 0.59 nM in [17]; ≥ 300 nM in test [18]; 0.37 nM in test [19]; 0.46 nM in [20]; 7.65 nM in test [21]. The EC50 in test [22] worked out at 0.34 nM; in test [23], 0.21 nM. Moreover, the “Neutralization IC50, authentic SARS-CoV-2 virus” value in [24] was 2.2 ngml^-1; in test [25], 3.3 ngml^-1; in test [26], 44.7 ngml^-1; in test [27] it was 7.4 ngml^-1; in test [28], 3.4 ngml^-1; in test [29] it was 33.3 ngml^-1. Further, the figures for the equilibrium dissociation constant (Kd) in [30] and in test [31] were 3.65 nM and < 0.001 nM, respectively.
